Here are results for five molecules from patent US20140287419A1, “Compositions Having Dicamba Decarboxylase Activity and Methods of Use” (priority 2013, published 2014).

A short description of this experiment: 14C assay with IPTG-induced recombinant E. coli cells (14CO2 capture from [14C]-carboxyl-labeled dicamba). The note with it: E. coli cell assay, 108 sequences tested.

B1: SEQ ID NO:33: amidohydrolase, Rhizobium leguminosarum bv. viciae 3841 (protein, listed as Rhizobium leguminosarum)
chain: MAQGKIALEEHFAIPETLQDSAGFVPGDYWKELSARLLDIQEKRLRLMDAHGIEKMILSLNAPAVQAIPDRAKALEISRRANDFLAEQCVKNPNRFLGFAALPLQDPDAATQELQRCVTTMGFVGALVNGFSQEGDGTTPLYYDLPQYRSFWAEVEKLNVPFYLHPRNPLPQDSRIYAGHSWLMGPTWAFAQETAVHALRLMGSGLFDEHPALRIIVGHMGEGLPYMMWRIDNRNAWVKVEKSYPAKRPIADYFNENFYITTSGNFRTQSLIDAMLEIGADRILFSADWPFENIDHAANWFDSATISEADRLKIGRTNAVSLFKLDR
In the case of B1, the “decarboxylation activity of dicamba” value was “showed decarboxylation activity of dicamba”.

B2: SEQ ID NO:30: o-pyrocatechuate decarboxylase, Enterobacter aerogenes KCTC 2190 (protein)
chain: MARGKIALEEHVSTPENNRLWDSTGEANRNGSEYMQDVERRLLDRSIQLEEMAQRNIDHVILSLTSPGAQSILDKAKAVSFARDTNDFIVDNYVKPNPDKFSAFATLALQNPEAAAEELERAVKKLGMKGALINGYTNVKDSEHGLYLDDESMLVFWDKVNELNVPVYLHPREPLEGPARGIYTGYESLIGSAWGFAQETAVHAIRLMMSGLFDRYPNLNLVLGHLGEGLVHMLPRTQHRLYRQRFGCGLGKAEKPLMHYLQNNFIVTTSGHFNTHSLNNAIEVMGADRVMFSVDYPYEDIHQACDWFDPLEMDEGLKEKIAWGNASRVFNIK
modifications: Enterobacter aerogenes
As for B2, the “decarboxylation activity of dicamba” value is “showed decarboxylation activity of dicamba”.

B3: SEQ ID NO:34: amidohydrolase, Cupriavidus necator N-1 (protein)
chain: MAQGKIGLEEHFAIPETLNDSAGFVPGDYWKELSRRLLDIQDDRLRQMDENGMEMMLLSLNAPAVQAVPDRKQACELAVRANDFLAEQVSRRPDRFQALAALPLQDPDFATVELTRCVNELGMRGALVNGFSQIDTPDNVVYYDAPQYASFWAAVEKLDVPFYLHPRNPIASWAQIYDGHPWLLGPTWAFGQETAVHALRLMASGLFDRHPALQIVLGHLGEGLPYSLWRIDNRNAWVKAPKTHPAKKTFRHYFQQNFHLTTSGNFHNQTLIDAILEIGADRILFSTDWPFENIDHAAKWFDSASISEADRTKIGRTNAMKLFKLVA
modifications: Cupriavidus necator
With B3, the “decarboxylation activity of dicamba” value was “showed decarboxylation activity of dicamba”.

B4: SEQ ID NO:31: reversible 2,6-dihydroxybenzoic acid decarboxylase, Agrobacterium sp. H13-3 (protein, listed as Agrobacterium sp.)
chain: MAQGKVALEEHFAIPETLQDSAGFVPGDYWKELQHRLLDIQDTRLKLMDAHGIETMILSLNAPAVQAIPDKTKAIEIARRANDVLAEECAKRPDRFLAFAALPLQDPDAATEELQRCVNDLGFVGALVNGFSQEGDGQTPLYYDLPQYRPFWGEVEKLDVPFYLHPRNPLPQDSRIYDGHPWLLGPTWAFAQETAVHALRLMASGLFDEHPRLNIILGHMGEGLPYMMWRIDHRNAWVKLPPRYPAKRRFMDYFNENFHITTSGNFRTQTLIDAILEIGADRILFSTDWPFENIDHASDWFNATSIAEADRVKIGRTNARRLFKLDGA
As for B4, the “decarboxylation activity of dicamba” value was “showed decarboxylation activity of dicamba”.

B5: SEQ ID NO:28: 5-carboxyvanillate decarboxylase, Sphingomonas paucimobilis (protein, listed as Sphingomonas paucimobilis)
chain: MARLIATEEAVTFQPVVDALRAHSRTDDASLDMILVRDVYGDEPARPAMIGRLSDVTGERLAEMDSNGVDMHLLSLTAPGVQMFDAETGTRLARIANDLMAQTVAANPTRFAGLGTFAPQDPASAAREIERVATQLRLNGLVINSHTNDLYYDDPFFHPVFEAIEASGLALYIHPRAPSKQIDRAFRDYGMNSAIWGYGIETSTNAVRMILSGLFDRFPRLKIVLGHMGEAIPFWLWRLDYMHGNATTFGGAPKLKLKPSEYFRRNFAITTSGVESHAALRYSIEVLGPENVMWAIDYPYQPMAPAVQFIRTAPIPEDVKAMVAGGNAARIFRIT
For B5, the “decarboxylation activity of dicamba” value is listed as “showed decarboxylation activity of dicamba”.
